Experimental data published in the DeepSol protein solubility set.

Assay: soluble on expression in E. coli; label from the status in PepcDB or PDB records
With “MILDRERTTGSLFERMEASSARNRQGGSIHSLRQSIRQNLRNILNTRSGSCRGAPELGIDEPEGAENFRESMSRAIEQCIERYEPRISHAEVQAVVSSASSPLDMTFHITAWVTFNETHEVLEFDMAPNGSQHYRVD” the “soluble on expression in E. coli” value was “soluble”.
In the case of “MILHPRPSPIAAAMYQLRDIGVDAIILHGPSGCCFRTARLLEIDGIRVFTSAMGENDFIFGAMDKLRDVIAEVLEYLKKETPKSEKYKIGIVGTCASMIIGEDLESLIDDFDDIIIPVDIHSGLVDNTVGAIRAMDGALNAGLIDYSEYERQKKMLEHHHHHH”, the “soluble on expression in E. coli” value is reported as “soluble”.
In the case of “MILLFGGTTEGRQAAALCDRLGLPFIYSTKTRVEPFATACGEFRHGALDEAALSELVSSSGVRLVIDAAHPFAARLHRSLFEVCQHLAVRLIRFDRPSVDVPDFEGLHSVADFTEALALLDRLNPAKLLALTGVQSIAPLRPWWEQHDMLLRILPTQASMELARREGIPEAQLLPMNPDSSDEALEKLVRKHGVDCLLAKESGESGFFSSKLRVAERCAIPLIVIRRPPAPAYDVVATSVEELEALLPD”, the “soluble on expression in E. coli” value is reported as “soluble”.
For “MILRTSEETISTVQEKQQNISPLVRERGPQRVAAHITGTRGRSNTLSSPNSKNEKALGRKINSWESSRSGHSFLSNLHLRNGELVIHEKGFYYIYSQTYFRFQEEIKENTKNDKQMVQYIYKYTSYPAPILLMKSARNSCWSKDAEYGLYSIYQGGIFELKENDRIFVSVTNEHLIDMDHEASFFGAFLVG”, the “soluble on expression in E. coli” value was “soluble”.
For “MILTPIRRYGAMILMLLTLVFSSEVLAKTHTTTASQKSHLTKASNKQVSSKQEYSRNSAKSSSLPDLRKYPSGTSRKKAFLRTVMPYITSQNAAITAERNWLISKQYQGQWSPAERARLKDIAKRYKVKWSGNTRKIPWNTLLERVDIIPTSMVATMAAAESGWGTSKLARNNNNLFGMKCMKGRCTNAPGKVKGYSQFSSVKESVSAYVTNLNTHPAYSSFRKSRAQLRKADQEVTATAMIHKLKGYSTKGKSYNNYLFAMYQDNQRLIAAHM”, the “soluble on expression in E. coli” value was “not soluble”.
With “MIMICPGCSCLCDDIYIKDGKVFNACRRGEEIFAKYNENRAVARVDGKEVDVDTAIEKAIEILKDAKNPAIYGLDTTVVEAQSLAIEVAEKLNGYIDDNSSFCLGELVEAVLKGEIPTTTLDEVRDNAYVLVYWGTNPYHSLSRHMSKYTYYPRGKRRPRGYDEDRYLVVVDVRKSETAKLAKKNAKFIQVESDAELVDSFMKVVDGKAAKYAKEAGAIITEMKKADFNVIFGGLGLKYGLKDLNMFKEMVKKLNEVAKVYFIPAGFHGNMRGFNETLFEKVGYVNKYSFRDGKSGEEFAFTELLKNEKIDAALIVGTDPVYSLPFDVSSKLGKVKTIVIDPRMSFTARIADVVIPSAISGIEAGGTMVRSDGVRVMLEPLEEKEVNDVYILQRIKEGL” the “soluble on expression in E. coli” value was “not soluble”.
For “MIMLKEYSLKALQTAINQAMKLDEQMPQKLQKLDGKTLEMVITPLNVNFYIRFKGSEMQLLHRIDGRPDTIIHSNPIGLIRLSLLPTSKARSLFNDKIRISGDIELGQSVKKLFDEIDIDWEGHLAHFTGDVVAHQIGSFVRKGLEFKNQFSTSMQQNITEFLQEELRICPSRNELEDFFAEVDELVLSVDRLQAHINNLMSDDEGN”, the “soluble on expression in E. coli” value was “not soluble”.
With “MINLQDVSKVYKSKHGDVNAVQNVSLSIKKGEIFGIIGYSGAGKSSLIRLLNGLEKPTSGTVEVAGTKINEVNGRGLRKARHEISMIFQHFNLLWSRTVRDNIMFPLEIAGVKKSERIKRANELIKLVGLEGKEKSYPSQLSGGQKQRVGIARALANNPKVLLCDEATSALDPQTTDSILDLLSDINERLGLTIVLITHEMHVIRKICNRVAVMENGKVVEEGEVLDVFKNPKEQMTKRFVQQVTEPEETKETLQHLLDDTASGKMVQLTFVGESAEQPLITEMIRNFNVSVNILQGKISQTKDGAYGSLFIHIDGDEEEVQNVIRFINDKQVKAEVITNV” the “soluble on expression in E. coli” value was “not soluble”.
For “MINNSNDIGFIQDIAGLDKLRQKAVNGDENAGQSALTAAARQFESIFTSMMLKSMRDANSDFKSDLMSSQNEDLYRQMLDEQMASEFSSSGSLGLADMIVAQLSTGQTASEQKGEDGFQEAMRRVEHARKTASERSNEDLVAAVYPLRKTQAVQSTQFDSRHSFVTKLKPYADKAARMLGVDSSLLIAQAALETGWGQKMVKNARGNSNNLFNIKADRSWQGDKVATQTLEYHNNVPVVEKAAFRSYASFDESFNDYVRFLENNPRYTNALDHGGNSERFIHGIHRAGYATDPQYADKVLRVKAQIDQMNLL”, the “soluble on expression in E. coli” value was “not soluble”.
With “MIPISVLVTNAGTVSFHIKGEYNRDRPSKFSDVFRPVVTWNLTRKCNLKCLHCYINASPEGEDGLTTEEALGLIDEMAEMKIPLIIMSGGEPLMRRDFFELASYARSKGIKLALSTNGTLISESVAKRLKELDFSYVGISLDSYDPEFHDKFRGLNGAFNMTVKGIGNAINVGLNVGLRFTITAKNIHQVDEYMKLALKLGVKRITFYHLSASGRGRELREWMYTLEEYVSFINKMIDYAIKLSGKIEIETTLGQFDGVYIAKKLARNEEELEKYLKFVENSGGCGRKMISIYPNGDVYPCQFIDFYKLGNVREKPLKEIIKNIPDLFINTDKYLKGRYCDKCEYKSACKGGDRARAYYWNEDIYGDDPLCPLKTLHI” the “soluble on expression in E. coli” value was “not soluble”.
With “MIPLKYLQAYPASLQDQVRQLIAENRLGEYLERRYPGRHDVQSDKALYAYTMNLKQEHLRNAPGLDKVLYDNKLDVVQRALGLHTAISRVQGGKLKAKKEIRVASLFKDAAPEFLRMIVVHELAHLKESEHNKAFYQLCQYMLPDYHQLEFDLRVYLTWKSLAAALEHHHHHH” the “soluble on expression in E. coli” value was “not soluble”.
With “MIPTERRQIILDMVAEKGIVSIAELTERMHVSHMTIRRDLQKLEQQGAVIQVSGGVQSSTRVAHEPSHQIKTELATPQKAAIGKLAASLVQPESCIYLDAGTTTLAIARQLVTMNKLTVVTNDFVIADYLMDNSNCTIIHTGGAVCRENRSCVGEAAATLLRGLMIDQAFISASSWSVRGISTPAEDKVTVKRAVASASRQKILVCDATKYGQVATWLALPLAEFNQIVTDDGLPESAIRALAKVDISLLMAKQ” the “soluble on expression in E. coli” value was “not soluble”.
For “MIPVILSGGSGSRLWPLSRKQYPKQFLALTGDDTLFQQTIKRLAFDGMQAPLLVCNKEHRFIVQEQLEAQNLASQAILLEPFGRNTAPAVAIAAMKLVAEGRDELLLILPADHVIEDQRAFQQALALATNAAEKGEMVLFGIPASRPETGYGYIRASADAQLPEGVSRVQSFVEKPDEARAREFVAAGGYYWNSGMFLFRASRYLEELKKHDADIYDTCLLALERSQHDGDLVNIDAATFECCPDNSIDYAVMEKTSRACVVPLSAGWNDVGSWSSIWDVHAKDANGNVTKGDVLVHDSHNCLVHGNGKLVSVIGLEDIVVVETKDAMMIAHKDRVQDVKHVVKDLDAQGRSETQNHCEVYRPWGSYDSVDMGGRFQVKHITVKPGARLSLQMHHHRAEHWIVVSGTAQVTCDDKTFLLTENQSTYIPIASVHRLANPGKIPLEIIEVQSGSYLGEDDIERLEDVYGRTAEPALQVVAGSR”, the “soluble on expression in E. coli” value was “not soluble”.
In the case of “MIPYRQLVRMSHLAARFVGGADVHVVDPLVDLRNVFEQTDQLKIALECRNLTVDVEKVKNEYDEWFETYQKWKQADKESISQLKKELRAKKDGLLNALALPNLVHHAGKKQTPLLKPSKHAQYLAQQGLMRIDKQNHVVHLVGYPVVVQKMIREQLVDLFPGCQPISPSYFARAAILEALNIDQSTCIPFTDDSSHFPLTYLVGNSLPAITSPFLKTSFGEKNEWPISVQCTGASYTEKKNQVDLGNARQRMKHCALWMSKSAEELEGIINDANVRVGAYLDEGLDLEVKVREVRGSELKNYESQAFVVENRGLSLSRISRIGDYVSKRLNIQYSGSPATEKSEKSDGFVQMVYVETDIDRILARLVDDLIEGKEPPKYIRDAIKKSF”, the “soluble on expression in E. coli” value is reported as “not soluble”.
With “MIQCEECLCWQHSVCMGLLEESIPEQYICYICRDPPGQRWSAKYRYDKEWLNNGRMCGLSFFKENYSHLNAKKIVSTHHLLADVYGVTEVLHGLQLKIGILKNKHHPDLHLWACSGKRKDQDQIIAGVEKKIAQDTVNREEKKYVQNHKEPPRLPLKMEGTYITSEHSYQKPQSFGQDCKSLADPGSSDDDDVSSLEEEQEFHMRSKNSLQYSAKEHGMPEKNPAEGNTVFVYNDKKGTEDPGDSHLQWQLNLLTHIENVQNEVTSRMDLIEKEVDVLESWLDFTGELEPPDPLARLPQLKRHIKQLLIDMGKVQQIATLCSV” the “soluble on expression in E. coli” value was “soluble”.
With “MIQTKQIGLQEVLSAAIKRATDEKILVSFVKQIDWMDPLLFYAAGKRISFENRCYFADPAQHVIFAGIGSVFTIATASRKRFQTARDEWDKVKEKAFVQREKYEFGTGPLLFGGFSFDQEKEKTDLWKEFDDTTFSLPTFLLTVKNEKAWLTMNTFVSATDCAETLYNEIVSLEEKIFEESKCALEGSKLTVTSKVEVDPKGWMKAIEKVQDEMKQGNVQKVVLARELKVEMDHHIDSALVLEALRIGQPDCYVFSFDYKGACFLGATPERLIRKEDEKFTSMCLAGSTSHGQSIEESKRNSNALLHDEKNLAEHGYVVNMIRSVLNEHCEFVNIPESPGLLTTKNLIHLYTPVEAKGDASLLTMVEELHPTPALGGTPRLEAMKLIRDVELLDRGLYGAPIGWIDDEGNGEFAVALRCGLLNGEKASLFAGCGIVIDSVPQLEYEETSLKFRPMLGALEELMK” the “soluble on expression in E. coli” value was “not soluble”.
With “MIRFIIPLMDCARLYGRPVQFKTERTDINSLMFGLPKLPSVDYFAEEEIAHLMTQEFNPLKEKDTDDTMALTMSRFSSYLQERMTKVSKRNTELNFRTFSDVMGMYNTTRDHSKLNCMSDKDNSVKEFSLSDKSNVSSETTNMMNQLQVNAHEYKSSMCERPIVASTSPIA” the “soluble on expression in E. coli” value was “not soluble”.
In the case of “MIRKHSATLHGHRTSISLEDAFWDELKIIAERRKVSFAALLAEIDDSRPADSNLSSSLRVYVLNWLKTR”, the “soluble on expression in E. coli” value is reported as “not soluble”.
With “MIRNPKIYIIILNYNAYEDTLECVKSIGNIDYDNYELVLVDNSSTDDSYVKLKESLPSYNIIKSKENLGYANGNNIGIKYALENGADYICILNNDVVVEKDFLNKLVDKIIEKEDVGIVGSCICDYYRREIIQGMGAHINLYFAAARRYFKGKNYNEIEKKDIFVDYLEGACFLVKSEVFEKIGLIPENYFLFFEETEFCTRAINAGYKIMCIYESKVYHKGSATINKFGSLSYAYLNRNRVIFVRRNSKWYQKIIFAIYIFIEAFGRIVIRKEPLTLFKYILGGFKSNKESIDVIDVKSYVKLEHHHHHH” the “soluble on expression in E. coli” value was “not soluble”.
With “MIRQSVFLLAAIGATVFAQNDSFDLVDANNDGKLSEKELITFMRKRGRPDGQEYFQRFDLDRNGHLDISEFVPLVYEMSRRPVDMDYEFFKKMDLNDDGIVDKAEVEKIRKDNNDRIIDGILSIADTNRDGQLTYAEFKNHLSSGAKSLSPAEEQRNQALQLLSFIDANGDNKLDQLELYTFSQKTSTNKVTKSDVQQIFAMLDKNQDGYLTENELLQLAQQFSTIGNVRSTIPKV” the “soluble on expression in E. coli” value was “not soluble”.
With “MISICLVNTYDKLKKHEIHLRSIARAAPLCYAFNFHLALLDFPFWRSEKEVAEEVANYTTIGEGGKYLLYLAESGKLHLIDKIPAHFGEVVATTSKPDPDKVVNPDTLAAFKSATFLIGLGRRGLPREMLKSAKYHLDVTRKGVSLETCSAIGAIAMLLAVKVVG” the “soluble on expression in E. coli” value was “not soluble”.
In the case of “MISIDPQFIKNFSKKVKQFDKFSLFVHVNPDFDAFGSAFAFKTFLNTFFSEKKAYVMGSYNINADGRELFPFEQTDINDDFVKESLAIIFDTSNQERVLTQKHKLAKETVRIDHHPRTEKFADMEWIDSSFSATAEMIGYLILQMGYKLNDEIASYLYAGIITDTQRFWGPTTTPQTFALTAKLMETGFNRNKVHDAVYLKPLLEHKYFSYVLSKAKITKNGLAYALIKKGAYKHFGVVSPLPMVHALNNIKGVKIWTTVYFNESIKKWIGSIRSRNIPINNFAQMFNGGGHKYAAAFVLDEKNQFMKLVQIMDDFLAKQNENS”, the “soluble on expression in E. coli” value is reported as “not soluble”.
